Results published in publication PMC4981310 (PLoS Pathogens, 2016).

System: Nc1ncnc2c1ncn2[C@@H]1O[C@H](COP(=O)(O)OP(=O)(O)O[C@H]2O[C@H](CO)[C@@H](O)[C@H](O)[C@H]2O)[C@@H](O)[C@H]1O
Experiment: purified protein
Settings: Mg2+ (stimulates kcat) compulsory-order ternary-complex mechanism; ADP-glucose binds before glucose 1-phosphate

Substance: GlgA (Mycobacterium tuberculosis H37Rv)
- Km: 46 ± 4 µM
- Vmax: 21.4 µmol/min/mg
- kcat: 15.4 ± 0.3 s⁻¹
